The values below come from patent publication US20220403009A1.

Assay [1] deals with SARS-CoV-1 spike protein on HIV-based pseudovirus (SARS-CoV) (UniProt P59594). The assay is described as follows: cell-based or functional assay.
Assay [2] has as its target SARS-CoV-2 spike protein on pseudovirus (SARS-CoV-2) (UniProt P0DTC2). The assay is described as follows: cell-based or functional assay.

Take CR3014 IgG1 (antibody): in assay [1], the Fold Over IgG1 (CoV-1) By Molar amounted to 1 fold; the Fold Over IgG1 (CoV-1) By Weight worked out at 1 fold; the IC50, SARS-CoV-1 pseudovirus neutralization turned out to be 0.068 µg/mL. Moreover, the IC50, SARS-CoV-2 pseudovirus neutralization in assay [2] is above 100000 µg/mL.
On to CR3014 IgM + J (antibody), for which, in assay [1], the Fold Over IgG1 (CoV-1) By Molar was above 80 fold; the Fold Over IgG1 (CoV-1) By Weight is above 13 fold; the IC50, SARS-CoV-1 pseudovirus neutralization was below 0.0051 µg/mL. This substance yielded an IC50, SARS-CoV-2 pseudovirus neutralization in assay [2] above 100000 µg/mL.
